Data on two substances can be found in paper PMC4552821.

The term Kd denotes the constant that tells how readily two partners part at equilibrium. Higher therefore signals lower affinity. Broadly, the KD is the equilibrium constant for the complex coming apart.

Read-outs that look alike come from different tables or passages of the source.

The target in assay [1] is kerateine (reduced hair keratin extract) (Homo sapiens) (UniProt Q15323). Description: SPR.
For assay [2] the target is unchanged. Description: SPR. This is another data set of the same source. For orientation: In SPR one partner is held on a chip, and binding of the other changes the refractive index at the surface.
Assay [3] has as its target Bone morphogenetic protein 2 (rhBMP-2) (UniProt P12643). Put plainly: SPR (Reichert SR 7000 refractometer). The following applies: pH 7.4; 20°C; 154 mM NaCl plus 6.7 mM phosphates (PBS); HyClone PBS (154 mM NaCl, 1.06 mM KH2PO4, 5.6 mM Na2HPO4) at pH 7.4. The pH 4.5 solvent is the same PBS acidified with d.
Assay [4] addresses Kerateine (KTN) extract, in solution (analyte). Put plainly: SPR (Reichert SR 7000 refractometer). The following applies: 20°C, no added salt, unbuffered.
Where [5] appears, read: pH 7, deionized water, water (pH 7).
The mark [6] stands for this setting: pH 12, 10 mM NaOH, 10 mM NaOH (pH 12).

Chain of Bone morphogenetic protein 2 (rhBMP-2) (P12643 whole entry): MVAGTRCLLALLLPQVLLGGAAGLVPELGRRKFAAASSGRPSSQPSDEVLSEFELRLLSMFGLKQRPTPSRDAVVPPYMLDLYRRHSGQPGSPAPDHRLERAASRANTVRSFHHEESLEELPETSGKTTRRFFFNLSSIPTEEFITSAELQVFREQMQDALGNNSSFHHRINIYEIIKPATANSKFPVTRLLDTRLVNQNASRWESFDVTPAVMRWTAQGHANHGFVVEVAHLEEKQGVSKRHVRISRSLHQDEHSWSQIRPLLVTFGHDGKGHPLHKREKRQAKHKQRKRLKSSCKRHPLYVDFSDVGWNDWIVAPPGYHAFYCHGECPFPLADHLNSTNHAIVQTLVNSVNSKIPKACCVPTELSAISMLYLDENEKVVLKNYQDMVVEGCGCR

Turning to “kerateine (reduced hair keratin extract), Q15323”, the Kd in assay [1] amounted to 100 µM; in assay [2], 180 µM.

Regarding “Kerateine (KTN) extract, chemisorbed monolayer on gold”, in assay [3], the KD stood at 32 µM, the “t1/2 (half-life of the complex)” value was 3.73 min and the “ΔG (dissociation energy)” value was 6.0 kcal/mol. Moreover, in assay [4] (setting [5]), the KD was 180 µM, the “t1/2 (half-life of the complex)” value came to 1.28 min and the “ΔG (dissociation energy)” value worked out at 5.0 kcal/mol. Also, in assay [4] (setting [6]), the KD amounted to 100 µM, the “t1/2 (half-life of the complex)” value came out at 1.77 min and the “ΔG (dissociation energy)” value is on record as 5.4 kcal/mol.
